The record followed here is patent US20070015230A1 (AMERICAN NATIONAL RED CROSS, published 2007).

The target in the experiment is T1, Human CRP (Novagen) (human, UniProt P02741 19-224).
T1 construct: also called C-reactive protein
T1 sequence (looked up): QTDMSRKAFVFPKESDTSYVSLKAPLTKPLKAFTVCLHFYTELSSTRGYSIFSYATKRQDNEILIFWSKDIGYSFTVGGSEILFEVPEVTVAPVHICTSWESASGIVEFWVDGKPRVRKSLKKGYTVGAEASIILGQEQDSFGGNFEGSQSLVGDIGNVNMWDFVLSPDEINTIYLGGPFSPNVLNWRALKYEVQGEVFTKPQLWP
Kind of experiment: Bead Blot of library beads loaded from CRP-spiked whole blood, detected with an anti-CRP antibody, confirmed by re-incubation.

As to GNQKWG (also called CRP ligand), the binding result is “binds”.
